The test has as its target Atto488-labeled GRB2-SH2 domain (UniProt P62993). As to the kind of experiment: MST.

Atto488-labeled GRB2-SH2 domain, sequence (P62993 60-152): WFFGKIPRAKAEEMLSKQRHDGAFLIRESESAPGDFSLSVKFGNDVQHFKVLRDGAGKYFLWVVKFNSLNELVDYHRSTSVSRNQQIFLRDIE

By Kd is commonly meant the equilibrium constant for the complex coming apart. High values mean lower affinity, low ones higher affinity. Turning to “Dual-phosphorylated H2AX (pH2AX) peptide”, the Kd is 2800 nM.
